For this test, the target named is LexA-CRY2 (CRY2 fused to the LexA DNA binding domain) (Arabidopsis, UniProt Q96524 1-612). Put plainly: two-hybrid.
LexA-CRY2 (CRY2 fused to the LexA DNA binding domain), sequence (Q96524 whole entry, the tested form may be a part): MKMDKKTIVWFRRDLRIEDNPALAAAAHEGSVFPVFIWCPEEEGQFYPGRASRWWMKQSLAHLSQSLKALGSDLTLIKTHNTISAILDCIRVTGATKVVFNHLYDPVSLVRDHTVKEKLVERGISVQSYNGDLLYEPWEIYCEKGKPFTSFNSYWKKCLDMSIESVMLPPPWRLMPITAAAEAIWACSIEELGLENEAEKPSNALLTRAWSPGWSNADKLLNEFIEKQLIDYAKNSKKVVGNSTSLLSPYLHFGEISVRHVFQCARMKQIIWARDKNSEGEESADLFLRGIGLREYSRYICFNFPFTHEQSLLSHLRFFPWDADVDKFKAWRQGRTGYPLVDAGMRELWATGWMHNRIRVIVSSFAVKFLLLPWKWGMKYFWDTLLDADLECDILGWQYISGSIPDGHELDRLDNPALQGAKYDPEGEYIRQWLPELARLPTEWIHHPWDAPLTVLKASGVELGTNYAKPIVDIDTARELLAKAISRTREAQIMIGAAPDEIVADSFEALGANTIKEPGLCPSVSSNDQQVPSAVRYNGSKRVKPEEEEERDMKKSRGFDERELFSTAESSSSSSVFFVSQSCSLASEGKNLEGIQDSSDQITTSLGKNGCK

B1: VP16-CIB1 (CIB1 fused to a VP16 activation domain) (natural protein, Arabidopsis, UniProt Q8GY61 1-335, looked up)
chain: MNGAIGGDLLLNFPDMSVLERQRAHLKYLNPTFDSPLAGFFADSSMITGGEMDSYLSTAGLNLPMMYGETTVEGDSRLSISPETTLGTGNFKKRKFDTETKDCNEKKKKMTMNRDDLVEEGEEEKSKITEQNNGSTKSIKKMKHKAKKEENNFSNDSSKVTKELEKTDYIHVRARRGQATDSHSIAERVRREKISERMKFLQDLVPGCDKITGKAGMLDEIINYVQSLQRQIEFLSMKLAIVNPRPDFDMDDIFAKEVASTPMTVVPSPEMVLSGYSHEMVHSGYSSEMVNSGYLHVNPMQQVNTSSDPLSCFNNGEAPSMWDSHVQNLYGNLGV
Take B1: the “fold stimulation of reporter activity by blue light over dark” value is roughly 100 fold.

Source of the values: publication PMC4277767 (ACS Synthetic Biology, 2014).
